We go through four substances from publication doi:10.1101/306035.

Usually stoichiometry N stands for the number of molecules, sites or subunits per partner or assembly.

For assay [1], the target named is DcaP lacking 40 residues at the N-terminus of the mature protein (DcaP_(DN40)) (Acinetobacter baumannii (strain AB307-0294)). Kind of assay: SEC. In general terms: SEC sorts molecules by how far they enter the pores of the column.
The target in assay [2] is barrel-only DcaP lacking the first 59 residues (DcaP_(Trunc)) (Acinetobacter baumannii (strain AB307-0294)). Put plainly: SEC.
For assay [3], the target named is full-length DcaP from Acinetobacter baumannii AB307-0294 (DcaPfl) (Acinetobacter baumannii (strain AB307-0294)). Kind of assay: single channel electrophysiology in planar lipid bilayers.
For assay [4] the target is unchanged. Kind of assay: SEC.
Assay [5] deals with seleno-methionine substituted DcaP_(DN40) with L280M and L282M (Acinetobacter baumannii (strain AB307-0294)). Kind of assay: crystal structure.

In assay [1], “DcaP lacking 40 residues at the N-terminus of the mature protein (DcaP_(DN40)) (domain or fragment)” came in with a stoichiometry N of 3.

In assay [2], “barrel-only DcaP lacking the first 59 residues (DcaP_(Trunc)) (domain or fragment)” displayed a stoichiometry N of 3.

Consider “full-length DcaP from Acinetobacter baumannii AB307-0294 (DcaPfl) (natural protein)”, for which the stoichiometry N in assay [3] and in assay [4] was 3 each time.

Regarding “seleno-methionine substituted DcaP_(DN40) with L280M and L282M (domain or fragment)”, in assay [5], the stoichiometry N is 3.
